From US20240084003A1 (SIMCERE ZAIMING PHARMACEUTICAL, published 2024) come the findings set out here.

Substitutions are numbered along the chain they refer to.

T1: human CD22-ECD-His protein (human, UniProt P20273 20-687)
T1 construct: Made in house in HEK293E; also called hCD22-ECD-His; recombinant human CD22-ECD His protein; not shown: His tag
T1 sequence: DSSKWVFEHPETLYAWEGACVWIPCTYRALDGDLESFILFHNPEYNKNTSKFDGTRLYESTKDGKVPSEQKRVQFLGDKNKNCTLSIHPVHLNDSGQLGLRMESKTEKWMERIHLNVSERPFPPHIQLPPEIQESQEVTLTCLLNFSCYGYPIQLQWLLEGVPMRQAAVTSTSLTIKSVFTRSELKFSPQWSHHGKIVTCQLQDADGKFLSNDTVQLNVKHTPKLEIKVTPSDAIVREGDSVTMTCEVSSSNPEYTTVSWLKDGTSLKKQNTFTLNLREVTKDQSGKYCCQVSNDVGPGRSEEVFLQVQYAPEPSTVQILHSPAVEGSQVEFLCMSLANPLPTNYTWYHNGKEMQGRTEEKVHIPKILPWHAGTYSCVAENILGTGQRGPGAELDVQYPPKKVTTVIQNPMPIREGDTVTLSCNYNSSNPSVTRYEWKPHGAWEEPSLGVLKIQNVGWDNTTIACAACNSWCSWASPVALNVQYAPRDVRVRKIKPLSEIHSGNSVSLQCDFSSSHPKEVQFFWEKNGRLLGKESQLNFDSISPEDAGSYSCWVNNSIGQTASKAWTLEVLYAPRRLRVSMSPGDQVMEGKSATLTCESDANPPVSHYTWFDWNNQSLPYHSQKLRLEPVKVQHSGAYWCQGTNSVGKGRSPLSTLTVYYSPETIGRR

B1: F1.280.1 (antibody, human IgG1, kappa, V domains shown)
VH: QIQLVQSGPELKKPGETVKISCKASGYTFTTYGMSWVKQTPGKGLTWMGWINTDSGVPTYADDFKRRFAFSLEASATTAYLQINNLKNEDTATYFCARGGPDYWGQGTTLTVSS
VL: DILLTQSPATLSVTPGETVSLSCRASQSIYKNLHWYHQKSHRSPRLLIKYASDSISGIPSRFTGSGSGTNFTLSINSVKPEDEGIYYCLQGYIVPLTFGAGTKLELKR
notes: Human-murine chimeric IgG1, kappa
B2: F1.245.2 (antibody, human IgG1, kappa, V domains shown)
VH: EVQLQQSGAELVKPGASVKLSCTGSGFNIKDYYIHWVKQRTEQGLEWMGRIDPEDGETEYAPKFQDEATITSDTSSNTAYLQLSSLTYEDTAVYYCAREAAGYFYRGSSYGYFDVWGTGTTVTVSS
VL: DFQMTQTTSFLSASLGDRVTISCSASQDISNYLNWYQQKPDGTVKLLIYYTSSLHSGVPSRFSGSGSGTDYSLTISNLEPEDIATYYCQQYSMLPYTFGGGTKLEMER
notes: as for B1
B3: F2.70.2 (antibody, human IgG1, lambda, V domains shown)
VH: EVQLVESGGGLVKPGGSLKLSCAASGFTFSDYGMNWFRQAPEKGLEWVAYISRGSHTIYYADTVKGRFTISRDNAKNTLFLQMTSLRSNDTAMYYCVRMAGYYAMDYWGQGTSVTVSS
VL: QLVLTQSSSASFSLGASAKLTCTLSSQHSSYIIEWYQQQPLKPPKYVMELKKDGSHSTGDGIPDRFSGSSSGADRYLSISNIQPEDEAIYICGVGDTIKEQFVYVFGGGTKVTVLG
notes: Human-murine chimeric IgG1, lambda
B4: F2.180.16 (antibody, human IgG1, lambda, V domains shown)
VH: EVKLVESGGGLVLPGGSLKISCAASGFTFSDYYMYWIRQTPDKRLEWVAYISNTGYSTFYPDSVKGRFTVSRDNAKNTLYLQMSRLQSEDTAMYYCARHGILYAMDYWGQGTSVTVSS
VL: B3 VL with L2P, H28Y, S30T, I32T, E34G, K52H, H56R, S57H, I89T, V103M
notes: as for B3
B5: F2.104.10 (antibody, human IgG1, lambda, V domains shown)
VH: B3 VH with L11F, K76E, V114L
VL: B3 VL with L50V, P84S
notes: as for B3
B6: F2.343.16 (antibody, human IgG1, lambda, V domains shown)
VH: QVQLKQSGPGLVQPSQSLSITCTVSGFSLTGYGVQWVRQSPGKGLEWLGVIWGGGGTDYNAAFISRLNIIKDNSKSQVFFKMNSLQADDTAIYYCARYSKYGHFDVWGTGTAVTVSS
VL: QAVVTQESALTTSPGETVTLTCRSSTGAVTTSNYANWVQEKPDHLFTGLIGGTYNRVPGVPARFSGSLIGDKAALTITGAQTEDEAIYFCALWYSNHFWVFGGGTKLTVLG
notes: as for B3
B7: F1.60.9 (antibody, human IgG1, kappa, V domains shown)
VH: QVQLKESGPGLVAPSQSLSITCTVSGLSLNNYGVSWVRQPPGKGLEWLGVIWGDGSTNYHSALISRLSISKDNSKSQVFLKLNSLHTDDTATYYCAINWGDYWGQGTTLIVSS
VL: DIKMTQSPSSMNASLGERVTITCKASQDINSYLSWFQQKPGKSPKILIYRANRLIDGVPSRFSGSGSGQDYSLTISSLEYEDMGIYYCLQYGVFPLTFGAGTKLELKR
notes: as for B1
B8: F1.257.3 (antibody, human IgG1, kappa, V domains shown)
VH: QVQLQQSGPELARPGASVKLSCKASGYTFTSYGISWVKQRTGQDLEWIGEIYPKLGTTYYNEKFKDKATLTTDRSSSTAYMALRSLTSEDSAVYFCACPHYYATRGGDYWGQGTTLTVSS
VL: EIVLTQSPATLSVTPGDSVTFSCRASQSISNHLHWYQQKSHESPRLLIRYASQSISGIPSRFSGSGSGTDFTLSLSSVETEDFGVYFCQQSHSWPYTFGGGTKLEIAR
notes: as for B1

The target of one assay is T1, human CD22-ECD-His protein. In words: ELISA, Ab 0.10 nM. The method, boiled down:
(§1)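 Plates were coated overnight at 4 °C with human CD22-ECD-His at 2 μg/mL in PBS and blocked with PBS + 2% BSA for 2 h at room temperature. Chimeric antibodies were bound for 2 h at 37 °C, then HRP secondary for 2 h at 37 °C; TMB developed 30 min, stopped with 1.0 N HCl.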
B1 gave an OD450 of 2.38 OD450.
Same read-out and setting: under B2 stands 2.57 OD450; under B3, 1.86 OD450; under B4, 1.8 OD450.
Same read-out and setting: in the case of B5 it was 1.94 OD450.
The same measure, in the same setting: under B6 stands 1.93 OD450; under B7, 2.59 OD450; under B8, 2.49 OD450.

For another assay, the target named is T1, human CD22-ECD-His protein. Nature of the assay: ELISA, Ab 0.01 nM. In outline: as §1
Background: In an ELISA, binding on a coated surface is turned into a signal by an enzyme label.
Consider B1, for which the OD450 is 1.92 OD450.
On the same count and under the same terms, under B2 stands 2.3 OD450.
The molecule B3 yielded an OD450 of 1.56 OD450.
As for B4, the OD450 came to 1.55 OD450.
On the same count and under the same terms, in the case of B5 it was 1.7 OD450.
The molecule B6 had an OD450 of 1.29 OD450.
Same read-out and setting: under B7 stands 1.75 OD450; under B8, 1.66 OD450.

Another assay has as its target T1, human CD22-ECD-His protein. Nature of the assay: ELISA, Ab 10.00 nM. In outline: as §1
In turn, B1 returned an OD450 of 2.3 OD450.
B2 yielded an OD450 of 2.54 OD450.
The same measure, in the same setting: under B3 stands 2.03 OD450; under B4, 2.08 OD450; under B5, 2 OD450.
B6: the OD450 was 1.84 OD450.
In the case of B7, the OD450 stood at 2.55 OD450.
For the molecule B8, the OD450 was 2.64 OD450.

A further assay addresses T1, human CD22-ECD-His protein. Nature of the assay: ELISA, Ab 0.00001 nM. The method, boiled down: as §1
B1 gave an OD450 of 0.13 OD450.
In the case of B2, the OD450 came out at 0.22 OD450.
Consider B3, for which the OD450 was 0.09 OD450.
Same read-out and setting: in the case of B4 it was 0.21 OD450; in that of B5, 0.22 OD450; in that of B6, 0.18 OD450.
The same measure, in the same setting: in the case of B7 it was 0.09 OD450; in that of B8, 0.2 OD450.
